# Data published in US20250110130.
# Chain of MMP2 (P08253 110-660): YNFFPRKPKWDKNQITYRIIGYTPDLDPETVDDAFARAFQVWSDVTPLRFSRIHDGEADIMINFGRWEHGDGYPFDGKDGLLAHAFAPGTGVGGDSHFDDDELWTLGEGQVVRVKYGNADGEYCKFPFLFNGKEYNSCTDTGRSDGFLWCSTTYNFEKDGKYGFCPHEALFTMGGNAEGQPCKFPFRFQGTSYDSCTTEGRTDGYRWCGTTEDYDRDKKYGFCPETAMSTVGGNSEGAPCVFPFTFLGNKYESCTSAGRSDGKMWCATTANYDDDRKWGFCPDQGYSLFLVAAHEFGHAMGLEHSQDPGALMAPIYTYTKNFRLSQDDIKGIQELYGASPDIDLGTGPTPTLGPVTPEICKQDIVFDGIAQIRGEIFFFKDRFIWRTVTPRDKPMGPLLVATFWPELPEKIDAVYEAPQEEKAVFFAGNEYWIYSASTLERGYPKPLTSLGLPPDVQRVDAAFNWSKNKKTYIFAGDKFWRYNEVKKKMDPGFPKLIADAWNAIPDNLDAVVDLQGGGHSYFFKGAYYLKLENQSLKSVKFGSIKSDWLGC
# Chain of MMP1 (P03956 100-469): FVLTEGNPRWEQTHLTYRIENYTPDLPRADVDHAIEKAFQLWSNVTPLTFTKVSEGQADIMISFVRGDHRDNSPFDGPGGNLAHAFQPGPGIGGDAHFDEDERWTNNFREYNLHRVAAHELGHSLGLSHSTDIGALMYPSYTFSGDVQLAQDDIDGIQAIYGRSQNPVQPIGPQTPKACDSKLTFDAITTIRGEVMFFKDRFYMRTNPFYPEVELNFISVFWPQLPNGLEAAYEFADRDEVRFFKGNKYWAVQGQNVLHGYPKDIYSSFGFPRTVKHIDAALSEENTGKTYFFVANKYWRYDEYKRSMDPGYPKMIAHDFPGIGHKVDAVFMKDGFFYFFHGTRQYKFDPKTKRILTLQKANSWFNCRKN
# Chain of MMP20 (O60882 108-483): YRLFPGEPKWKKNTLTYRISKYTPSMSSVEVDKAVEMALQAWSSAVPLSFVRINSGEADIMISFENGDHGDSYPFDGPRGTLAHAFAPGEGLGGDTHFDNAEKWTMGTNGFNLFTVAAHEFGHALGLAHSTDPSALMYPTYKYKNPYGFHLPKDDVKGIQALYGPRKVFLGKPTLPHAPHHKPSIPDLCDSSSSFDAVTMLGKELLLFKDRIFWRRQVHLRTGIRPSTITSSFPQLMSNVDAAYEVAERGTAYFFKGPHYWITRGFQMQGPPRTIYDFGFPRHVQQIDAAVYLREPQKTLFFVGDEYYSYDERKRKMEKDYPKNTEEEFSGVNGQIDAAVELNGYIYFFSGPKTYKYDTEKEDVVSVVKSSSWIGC
Substance,"fluorescence read of probe cleavage, recombinant protease assay (Probe #417)","fluorescence read of probe cleavage, recombinant protease assay (Probe #554)",other results
MMP2,"Probe #417 sensed MMP1, MMP2, MMP8, MMP13, and MMP14 (FIG. 55C)","Probe #554 sensed MMP1, MMP2, MMP13, MMP14, and DPP4 (FIG. 55F)","fluorescence read of probe cleavage, recombinant protease assay (Probe #349): Probe #349 sensed MMP2 and DPP4 (FIG. 55A); fluorescence read of probe cleavage, recombinant protease assay (Probe #117): Probe #117 sensed MMP2 and MMP20 (FIG. 55D)"
MMP13,"Probe #417 sensed MMP1, MMP2, MMP8, MMP13, and MMP14 (FIG. 55C)","Probe #554 sensed MMP1, MMP2, MMP13, MMP14, and DPP4 (FIG. 55F)","fluorescence read of probe cleavage, recombinant protease assay (Probe #263): Probe #263 sensed MMP13 (FIG. 55E)"
MMP8,"Probe #417 sensed MMP1, MMP2, MMP8, MMP13, and MMP14 (FIG. 55C)",–,–
DPP4,–,"Probe #554 sensed MMP1, MMP2, MMP13, MMP14, and DPP4 (FIG. 55F)","fluorescence read of probe cleavage, recombinant protease assay (Probe #387): Probe #387 sensed DPP4 (FIG. 55G); fluorescence read of probe cleavage, recombinant protease assay (Probe #411): Probe #411 sensed DPP4 (FIG. 55B); fluorescence read of probe cleavage, recombinant protease assay (Probe #349): Probe #349 sensed MMP2 and DPP4 (FIG. 55A)"
MMP20,–,–,"fluorescence read of probe cleavage, recombinant protease assay (Probe #117): Probe #117 sensed MMP2 and MMP20 (FIG. 55D)"
MMP14,"Probe #417 sensed MMP1, MMP2, MMP8, MMP13, and MMP14 (FIG. 55C)","Probe #554 sensed MMP1, MMP2, MMP13, MMP14, and DPP4 (FIG. 55F)",–
MMP1,"Probe #417 sensed MMP1, MMP2, MMP8, MMP13, and MMP14 (FIG. 55C)","Probe #554 sensed MMP1, MMP2, MMP13, MMP14, and DPP4 (FIG. 55F)",–
